As a reminder, the Kd is the constant that tells how readily two partners part at equilibrium.

We go through five molecules from article PMC3342945.

Series [1] deals with T1, membrane IL-6R on BAF/gp130/IL6R/TNF cells (Homo sapiens) (UniProt P08887).
T1 sequence: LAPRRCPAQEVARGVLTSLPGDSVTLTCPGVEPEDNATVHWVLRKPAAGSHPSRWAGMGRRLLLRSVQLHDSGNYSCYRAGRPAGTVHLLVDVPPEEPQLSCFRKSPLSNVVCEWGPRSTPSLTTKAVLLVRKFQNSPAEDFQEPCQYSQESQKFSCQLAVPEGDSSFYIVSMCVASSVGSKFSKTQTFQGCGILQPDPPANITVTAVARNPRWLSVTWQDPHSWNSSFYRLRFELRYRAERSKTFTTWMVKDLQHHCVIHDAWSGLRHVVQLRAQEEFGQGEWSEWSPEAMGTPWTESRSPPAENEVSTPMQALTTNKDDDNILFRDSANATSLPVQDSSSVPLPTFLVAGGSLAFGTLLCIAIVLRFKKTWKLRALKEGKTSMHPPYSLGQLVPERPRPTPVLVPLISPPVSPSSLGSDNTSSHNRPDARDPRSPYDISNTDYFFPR
Description: flow cytometry. (Flow cytometry measures light scatter and fluorescence of single cells or particles in a stream.)

The target of series [2] is T2, Hyper-IL-6 (IL-6 and sIL-6R fusion, flexible linker) (Homo sapiens, UniProt P08887 113-323+P05231:29-212, internal_change). Description: filter binding.
For series [3], the target named is T2, Hyper-IL-6 (IL-6 and sIL-6R fusion, …). The series is described as follows: filter binding. This is another data set of the same source.

With GGGGAGGCUGUGGUGAGGG [AIR-3A Atto647N], the Kd in series [1] is 8.5 nM.

For the molecule GGGGAGGCUGUGGUGAGUG (ssRNA) [G18U], in series [2], the binding result is “no binding”.

GGGGAGGCUGUGGUGAUGG (ssRNA) [G17U]: the binding result in series [2] is “no binding”.

As for GGGGAGGCUGUGGUGAUUG (ssRNA) [G17U/G18U], the binding result in series [2] is “no binding”.

On to GGGGAGGCUGUGGUGAGGG (structured_RNA) [AIR-3A], for which the Kd in series [3] is 60.4 ± 16 nM.
